Substrate in data set [1]: NC(=O)c1ccc[n+]([C@@H]2O[C@H](COP(=O)([O-])OP(=O)(O)OC[C@H]3O[C@@H](n4cnc5c(N)ncnc54)C(O)[C@H]3O)[C@H](O)C2O)c1
The experiment in a line: Enzyme kinetics of PARP15-catalyzed automodification by MLISA (Experiment No. 2). Type of data set: biochemical, human. The note with it: other: 500 nM PARP15, NAD+ 5-400 μM, Michaelis-Menten fit; pH 7.4. On the procedure: To characterize enzyme kinetics, 96-well plates were coated with reactions in triplicates that consist of 500 nM of PARP15 and NAD^+ at varied concentrations (5, 10, 20, 30, 40, 200, and 400 μM) in reaction buffer (50 mM Tris-HCl, pH 7.4, 2 mM DTT). The reactions were quenched with 20% ice-cold TCA at different time points (0, 2.5, 5, 7.5, 10, 12.5, 15, and 20 minutes). The plates were further incubated for up to 2 hours under room temperature followed by five washes with 200 μL of PBST. Kinetic parameters were calculated by fitting data to Michaelis-Menten model implemented in GraphPad Prism.
To determine reaction rates, standard curves were generated for each reaction plate. […] Upon additions of Coomassie Plus (Bradford) assay reagents to clear 96-well pureGrade plates, the absorbance at 595 nm of each well was measured by Synergy H1 Hybrid Multi-Mode Microplate Reader. The concentrations of automodified PARP15 were calculated through fitting to linear regression curves generated with BSA standards. Standard curves were constructed through linear correlation of the determined concentrations of automodified PARP15 with the fluorescence intensities of the corresponding wells measured on 96-well ELISA plates.

Substrate in data set [2]: NC(=O)c1ccc[n+]([C@@H]2O[C@H](COP(=O)([O-])OP(=O)(O)OC[C@H]3O[C@@H](n4cnc5c(N)ncnc54)C(O)[C@H]3O)[C@H](O)C2O)c1
Put plainly: Km determination of PARP15 automodification by M2-based ELISA (Experiment No. 1). It counts as biochemical, human. The note with it: other: 500 nM PARP15, NAD+ 5 μM to 4 mM; pH 7.4. Here is the method:
96-well ELISA plates were coated with reactions in triplicates consisting of 500 nM PARP15 with various concentrations of NAD^+ (5, 10, 20, 30, 40, 200, 400, 1000, 2000 and 4000 μM) in Reaction Buffer (50 mM Tris-HCl, pH 7.4, 2 mM dTT). The reactions were quenched with 20% ice-cold TCA at various time points (0 to 20 minutes). The plates were further incubated for up to 2 hour under room temperature followed by five washes of PBST.
PARP15 automodification assay was performed by adding 50 μg/ml PARP15 to Reaction Buffer with 500 μM NAD^+ in a microcentrifuge tube for 2 hours. Automodified PARP15 was diluted and plated simultaneously on both the ELISA plate and clear pureGrade plate according to manufacturer's protocol. Upon addition of Coomassie Plus (Bradford) Assay Reagent the absorbance of each well was measured on a Synergy H1 Hybrid Multi-Mode Microplate Reader (BioTek, VT). The concentrations of automodified PARP15 in each well were determined through linear regression curve using BSA standards. A standard curve was constructed through a linear correlation of automodified PARP15 concentrations and the corresponding fluorescence signals.

B1: PARP15 (Homo sapiens) (protein)
chain: MGHHHHHHIEGRNLPEHWTDMNHQLFCMVQLEPGQSEYNTIKDKFTRTCSSYAIEKIERIQNAFLWQSYQVKKRQMDIKNDHKNNERLLFHGTDADSVPYVNQHGFNRSCAGKNAVSYGKGTYFAVDASYSAKDTYSKPDSNGRKHMYVVRVLTGVFTKGRAGLVTPPPKNPHNPTDLFDSVTNNTRSPKLFVVFFDNQAYPEYLITFTA
notes: The catalytic domains of PARP15 (residue 481-678); His6 (N); Factor Xa cleavage site (IEGR) (N); made in house; host or cells: E. coli BL21 (DE3)
As usually defined, the Km is the substrate concentration at which the rate is half of its maximum. What is called kcat is the number of substrate molecules converted per active site and unit of time at saturation. Regarding B1, in data set [1], the Km was 4.5 ± 2.9 µM and the kcat is 0.000183 ± 1.7e-05 s⁻¹. Also, the Km in data set [2] turned out to be 7.148 ± 3.138 µM.

(Values after patent US20190212340A1, “AN ELISA-LIKE ASSAY FOR QUANTIFYING ENZYMATIC ACTIVITIES OF MONO-ADP-RIBOSYLTRANSFERASES” (University of Southern California, priority 2016, published 2019).)
